Measured values reported in article PMC2199204 (The Journal of Cell Biology, 2001).

Biological target: T1, endogenous RasGRP (human (endogenous in A172), UniProt O95267 1-797)
T1 sequence (looked up): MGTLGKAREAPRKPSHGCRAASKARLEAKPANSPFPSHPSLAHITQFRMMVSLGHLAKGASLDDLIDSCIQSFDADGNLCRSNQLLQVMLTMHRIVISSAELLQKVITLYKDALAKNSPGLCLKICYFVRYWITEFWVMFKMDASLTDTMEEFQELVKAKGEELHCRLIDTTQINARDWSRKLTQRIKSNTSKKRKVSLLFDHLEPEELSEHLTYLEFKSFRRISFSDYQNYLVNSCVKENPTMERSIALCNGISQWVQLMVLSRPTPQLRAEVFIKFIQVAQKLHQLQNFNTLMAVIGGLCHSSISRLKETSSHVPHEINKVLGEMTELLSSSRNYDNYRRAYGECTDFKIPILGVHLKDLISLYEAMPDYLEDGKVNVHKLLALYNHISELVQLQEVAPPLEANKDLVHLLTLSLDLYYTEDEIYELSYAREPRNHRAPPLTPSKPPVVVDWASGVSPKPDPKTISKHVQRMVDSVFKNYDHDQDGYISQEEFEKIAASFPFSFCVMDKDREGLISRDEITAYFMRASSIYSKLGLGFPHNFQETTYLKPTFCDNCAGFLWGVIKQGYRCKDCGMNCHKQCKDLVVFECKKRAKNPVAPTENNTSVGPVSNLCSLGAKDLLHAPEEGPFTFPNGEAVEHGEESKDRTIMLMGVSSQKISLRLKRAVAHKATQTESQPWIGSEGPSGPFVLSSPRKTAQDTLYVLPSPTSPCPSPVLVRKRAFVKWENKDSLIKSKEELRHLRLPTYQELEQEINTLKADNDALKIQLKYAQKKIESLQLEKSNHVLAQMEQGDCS
Test: co-IP

fold associated DGK activity, PMA-treated over untreated cells: 1.9 fold
B1: endogenous DGKζ (enzyme)
chain: not shown
